Measured values from publication doi:10.1101/2025.10.27.684804.

Biological target: peptide containing the APP12 polyproline motif and a N-terminal TAMRA label
Experiment: fluorescence polarisation

Kd: < 2000 nM
Substance: naive fusion of bmTyr and Fyn-SH3 linked by a short glycine/serine linker (from UniProt P06241 84-141) (enzyme)
